Reference: patent US20040156820A1, “Adjuvant combination formulations” (priority 2000, published 2004)

Tests used:
[1] = type: in vivo, cynomologous monkeys (Macaca fagscicularis); conditions: cynomologous monkeys, five immunizations weeks 0, 4, 8, 18, 23
Procedure: Immunizations: All intranasal immunizations were delivered with a 100 μl metered dose nasal spray device. All intramuscular injections were given in the quadriceps muscle with needle and syringe. All animals were immunized on a schedule of 0, 4, 8, 18 and 23 weeks.
Group 1: 1000 μg C4 (E9V)-V389.6P peptide in sterile normal saline, final volume 200 μl (100 μl each nostril).
Group 2: 1000 μg C4 (E9V)-V389.6P peptide, 50 μg 529 SE, and 250 μg human GM-CSF, final oil concentration 1%, final volume 1.0 ml (500 μl each quadriceps by IM injection).
All animals were closely monitored for changes in body temperature during the 24 hours immediately following each administration of the immunogen.

[2] = test system: Aβ1-42 peptide; assay: Reciprocal anti-Aβ1-42 IgG endpoint total and subclass titers (Example 4); type: in vivo; conditions: Swiss-Webster mice n=10, 30 μg Aβ1-42 s.c. week 0 and 3
Procedure: Formulations were mixed by vortex immediately prior to immunization.
After incubation, wells were washed, and developed with ABTS. Wells were read at 405 nm. Titers were standardized using control sera.
The same protocol was followed for analysis of […] peptide-specific antibody and subclass distribution, except that a concentration of 0.3 μg/ml per microtiter plate was used.
Outbred Swiss-Webster mice were divided into groups of ten mice each. Each group received 30 μg of Aβ1-42 peptide, which corresponds to an internal 42 amino acid long region of APP. […] Mice were immunized subcutaneously in the rump with a total volume of 0.2 ml, divided equally into each of two sites at the base of the tail/rump. Immunizations were administered at week 0 and week 3.
Mice were bled at days 0, 20, 35 and 70. Serum was analyzed from individual mice. Reciprocal endpoint anti-Aβ1-42 peptide IgG endpoint total class and subclass titers were measured from individual sera (n=10 Swiss-Webster) at week 5 and at week 10.

Sequence of Aβ1-42 peptide (P05067 672-713): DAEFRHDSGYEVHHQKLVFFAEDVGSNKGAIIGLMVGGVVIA

Row | Molecule | Immunogen safety and tolerability [1] | Anti-Aβ1-42 Week 5 IgG Endpoint Titers, Geometric Mean [2] | Anti-Aβ1-42 Week 10 IgG2a Endpoint Titers, Geometric Mean [2] | Anti-Aβ1-42 Week 10 IgG Endpoint Titers, Geometric Mean [2] | Anti-Aβ1-42 Week 5 IgG1 Endpoint Titers, Geometric Mean [2] | Anti-Aβ1-42 Week 5 IgG2a Endpoint Titers, Geometric Mean [2] | Anti-Aβ1-42 Week 10 IgG1 Endpoint Titers, Geometric Mean [2]
1 | CC[C@H](C)[C@H](NC(=O)[C@H](CO)NC(=O)[C@H](CC(C)C)NC(=O)[C@H](CCCNC(=N)N)NC(=O)[C@H](CCC(=O)O)NC(=O)[C@H](CCCNC(=N)N)NC(=O)[C@@H](NC(=O)[C@H](CC(N)=O)NC(=O)[C@H](CC(N)=O)NC(=O)[C@H](CC(N)=O)NC(=O)[C@@H]1CCCN1C(=O)[C@H](CCCNC(=N)N)NC(=O)[C@@H](NC(=O)[C@H](C)NC(=O)[C@H](Cc1ccc(O)cc1)NC(=O)[C@H](CCSC)NC(=O)[C@H](C)NC(=O)[C@H](CCCCN)NC(=O)CNC(=O)[C@@H](NC(=O)[C@@H](NC(=O)[C@H](CCC(N)=O)NC(=O)[C@H](Cc1c[nH]c2ccccc12)NC(=O)[C@H](CCSC)NC(=O)[C@H](CC(N)=O)NC(=O)[C@@H](NC(=O)[C@@H](NC(=O)[C@H](CCC(N)=O)NC(=O)[C@@H](N)CCCCN)[C@@H](C)CC)[C@@H](C)CC)C(C)C)C(C)C)[C@@H](C)O)[C@@H](C)O)C(=O)NCC(=O)N1CCC[C@H]1C(=O)NCC(=O)N[C@@H](CCCNC(=N)N)C(=O)N[C@@H](C)C(=O)N[C@@H](Cc1ccccc1)C(=O)N[C@@H](Cc1ccc(O)cc1)C(=O)N[C@@H](C)C(=O)N[C@@H](CCCNC(=N)N)C(=O)N[C@@H](CCCNC(=N)N)C(=O)O [C4(E9V)-V389.6P peptide alone] | extremely well tolerated | – | – | – | – | – | –
2 | None: 30 μg Aβ1-42 peptide (SEQ ID NO:6) without adjuvant | – | 12,976 | 5,910 | 21,426 | – | – | –
3 | GM-CSF (10): recombinant murine granulocyte macrophage colony stimulating factor, given with Aβ1-42 peptide (protein, UniProt P01587 18-141, looked up) Granulocyte-macrophage …: APTRSPITVTRPWKHVEAIKEALNLLDDMPVTLNEEVEVVSNEFSFKKLTCVQTRLKIFEQGLRGNFTKLKGALNMTASYYQTYCPPTPETDCETQVTTYADFIDSLKTFLTDIPFECKKPGQK | – | 214,497 | 64,910 | 1,049,414 | 8,654 | 25,554 | 8,483
